Among the data in article PMC3069065 are EC50 of the ligand 1α,25(OH)2-3-epi-D3 for induced recruitment of the peptide and EC50 of the ligand 1α,25(OH)2D3 for induced recruitment of the peptide values, retold here.

Where no end group is shown, it is not given here. The star is where a group is joined. Biotin = O=C1N[C@H]2[C@H](CS[C@H]2CCCCC(=O)*)N1

The assay addresses human vitamin D nuclear receptor ligand-binding domain, hexahistidine-tagged (6xHis-VDR-LBD) (human). Description: AlphaScreen or HTRF; 100 nM 6xHis-VDR-LBD on Ni2+-chelate acceptor beads, 20 nM biotinylated TIF2-3 peptide on streptavidin donor beads; increasing concentrations of 1α,25(OH)2D3 or 1α,25(OH)2-3-epi-D3 (1% DMSO); 50 mM MOPS pH 7.4, 50 mM NaF, 50 mM CHAPS, 100 µg/ml BSA.

In turn, Biotin-QEPVSPKKKENALLRYLLDKDDTKD [human TIF2-3 biotinylated peptide (TIF2 coactivator peptide bearing the 3rd LXXLL motif)] showed an EC50 of the ligand 1α,25(OH)2-3-epi-D3 for induced recruitment of the peptide of 2.5 nM and an EC50 of the ligand 1α,25(OH)2D3 for induced recruitment of the peptide of 1.2 nM.
